Assays:
Test in all cases: cell-based or functional assay
[1] = target: T1, cynomolgus monkey ANGPTL3(17-460)-His (cynomolgus monkey, UniProt Q9Y5C1 17-460 (human entry), biotin-labeled in the ELISA and HTRF assays (sites not given))
T1 chain: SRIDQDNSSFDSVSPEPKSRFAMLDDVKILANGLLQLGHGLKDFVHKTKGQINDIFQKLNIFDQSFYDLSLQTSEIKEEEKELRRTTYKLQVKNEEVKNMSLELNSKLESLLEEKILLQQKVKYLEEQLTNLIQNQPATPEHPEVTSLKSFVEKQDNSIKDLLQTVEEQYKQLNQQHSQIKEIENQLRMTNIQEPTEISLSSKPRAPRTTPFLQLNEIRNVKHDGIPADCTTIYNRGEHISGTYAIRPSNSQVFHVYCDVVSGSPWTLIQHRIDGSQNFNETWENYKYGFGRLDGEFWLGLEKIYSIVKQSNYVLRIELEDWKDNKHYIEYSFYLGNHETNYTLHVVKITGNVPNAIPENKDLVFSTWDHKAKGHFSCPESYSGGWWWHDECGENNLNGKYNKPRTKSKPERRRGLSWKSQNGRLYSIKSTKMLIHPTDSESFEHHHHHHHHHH

[2] = target: T2, human ANGPTL3(17-170)-Flag-His (human, UniProt Q9Y5C1 17-170)
T2 sequence: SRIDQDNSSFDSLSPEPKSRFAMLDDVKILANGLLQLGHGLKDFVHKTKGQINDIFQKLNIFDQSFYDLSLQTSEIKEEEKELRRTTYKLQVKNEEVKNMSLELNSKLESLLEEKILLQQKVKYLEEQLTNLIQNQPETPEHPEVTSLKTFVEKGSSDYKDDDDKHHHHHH

rat ANGPTL3(17-455)-His = target: T3, rat ANGPTL3(17-455)-His (rat, biotin-labeled in the ELISA and HTRF assays (sites not given))
T3 chain: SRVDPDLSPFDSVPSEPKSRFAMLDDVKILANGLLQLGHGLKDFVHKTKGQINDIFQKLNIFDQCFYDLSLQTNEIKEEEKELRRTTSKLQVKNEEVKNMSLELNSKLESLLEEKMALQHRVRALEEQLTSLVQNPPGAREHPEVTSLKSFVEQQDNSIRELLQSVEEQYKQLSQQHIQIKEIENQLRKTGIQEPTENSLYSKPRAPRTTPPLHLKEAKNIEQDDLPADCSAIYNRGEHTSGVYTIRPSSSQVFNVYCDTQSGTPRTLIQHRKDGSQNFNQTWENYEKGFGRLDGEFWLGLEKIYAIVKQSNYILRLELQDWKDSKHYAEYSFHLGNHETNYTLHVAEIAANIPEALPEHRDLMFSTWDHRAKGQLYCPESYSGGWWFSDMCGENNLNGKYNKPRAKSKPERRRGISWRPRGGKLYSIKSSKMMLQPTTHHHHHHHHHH

[3] = target: T4, mouse ANGPTL3(17-455)-His (mouse, UniProt Q9R182 17-455, biotin-labeled in the ELISA and HTRF assays (sites not given))
T4 sequence: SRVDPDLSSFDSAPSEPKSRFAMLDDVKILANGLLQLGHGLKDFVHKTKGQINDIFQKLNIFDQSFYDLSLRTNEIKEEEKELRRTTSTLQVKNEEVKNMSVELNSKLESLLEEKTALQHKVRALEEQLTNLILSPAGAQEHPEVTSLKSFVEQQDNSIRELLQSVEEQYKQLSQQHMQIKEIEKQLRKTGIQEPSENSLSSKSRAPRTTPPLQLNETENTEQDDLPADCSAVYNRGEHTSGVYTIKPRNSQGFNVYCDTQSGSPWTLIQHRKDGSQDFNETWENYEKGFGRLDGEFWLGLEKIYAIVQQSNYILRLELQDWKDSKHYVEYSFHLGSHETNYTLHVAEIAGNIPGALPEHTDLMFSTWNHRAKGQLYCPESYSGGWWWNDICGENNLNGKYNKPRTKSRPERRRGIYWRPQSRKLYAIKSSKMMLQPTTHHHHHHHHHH

IC50 (nM), activity in blocking the inhibition of LPL by ANGPTL3 (bovine LPL enzyme activity assay) [1]: 53.6 nM | IC50 (nM), activity in blocking the inhibition of LPL by ANGPTL3 (bovine LPL enzyme activity assay) [2]: 75.3 nM | IC50 (nM), activity in blocking the inhibition of LPL by ANGPTL3 (bovine LPL enzyme activity assay) (rat ANGPTL3(17-455)-His): 132 nM | IC50 (nM), activity in blocking the inhibition of LPL by ANGPTL3 (bovine LPL enzyme activity assay) [3]: 41.5 nM
B1: P8BG (antibody, human IgG4 S228P, kappa, V domains shown)
VH: QVQLVQSGAEVKKPGASVKVSCKASGYTFTSYDINWVRQAPGQGLEWVGLINPREDSTSYAQKFQGRVTMTRDTSTSTMYMELSSLRSEDTAVYFCARDLGSIREVLYYGMDVWGQGTTVTVSS
VL: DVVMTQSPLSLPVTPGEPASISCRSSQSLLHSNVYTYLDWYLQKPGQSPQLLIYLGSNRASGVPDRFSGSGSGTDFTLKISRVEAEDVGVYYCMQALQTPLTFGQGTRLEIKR
